For three substances, degradation_or_half_life, enzymatic_activity and localisation_or_trafficking results are on record in article PMC11897055.

The conditions of this data set: other: succinylation at K130.

Turning to “superoxide dismutase 2 (SOD2): CPT1A knockdown”, the degradation_or_half_life entry was “no change”, the enzymatic_activity entry is “decreases” and the localisation_or_trafficking result is given as “decreases”.

Turning to superoxide dismutase 2 (SOD2): K130R, the enzymatic_activity result is recorded as “decreases” and the localisation_or_trafficking result is listed as “decreases”.

With “superoxide dismutase 2 (SOD2): ST1326 (CPT1A inhibitor, 10 μM, 48 h)”, the enzymatic_activity entry is recorded as “decreases”.
